Reference: publication PMC3252339, “Human PAPS Synthase Isoforms Are Dynamically Regulated Enzymes with Access to Nucleus and Cytoplasm” (PLoS ONE, 2012)
Residue numbers refer to the chain shown, from its start. In names and notes the source's numbering stands.

B1: PAPS synthase 1 wild type (enzyme, human, UniProt O43252 1-624, looked up)
chain: MEIPGSLCKKVKLSNNAQNWGMQRATNVTYQAHHVSRNKRGQVVGTRGGFRGCTVWLTGLSGAGKTTVSMALEEYLVCHGIPCYTLDGDNIRQGLNKNLGFSPEDREENVRRIAEVAKLFADAGLVCITSFISPYTQDRNNARQIHEGASLPFFEVFVDAPLHVCEQRDVKGLYKKARAGEIKGFTGIDSEYEKPEAPELVLKTDSCDVNDCVQQVVELLQERDIVPVDASYEVKELYVPENKLHLAKTDAETLPALKINKVDMQWVQVLAEGWATPLNGFMREREYLQCLHFDCLLDGGVINLSVPIVLTATHEDKERLDGCTAFALMYEGRRVAILRNPEFFEHRKEERCARQWGTTCKNHPYIKMVMEQGDWLIGGDLQVLDRVYWNDGLDQYRLTPTELKQKFKDMNADAVFAFQLRNPVHNGHALLMQDTHKQLLERGYRRPVLLLHPLGGWTKDDDVPLMWRMKQHAAVLEEGVLNPETTVVAIFPSPMMYAGPTEVQWHCRARMVAGANFYIVGRDPAGMPHPETGKDLYEPSHGAKVLTMAPGLITLEIVPFRVAAYNKKKKRMDYYDSEHHEDFEFISGTRMRKLAREGQKPPEGFMAPKAWTVLTEYYKSLEKA
notes: also called PAPSS1; PAPSS1 wild type; source: E. coli expression strains, purified (GSH sepharose, PreScission digestion, Superdex 200)
B2: PAPS synthase 1 L119K (enzyme, human, UniProt O43252 1-624, looked up)
chain: B1 chain with L119K
notes: Same construct as m1 with the point mutation made by site-directed mutagenesis; the oligonucleotides are in Information S1; also called PAPSS1 L119K; source: E. coli expression strains, purified (GSH sepharose, PreScission digestion, Superdex 200)
B3: PAPS synthase 1 RR111,112AA (enzyme, human, UniProt O43252 1-624, looked up)
chain: B1 chain with R111A, R112A
notes: Same construct as m1 with the double mutation made by site-directed mutagenesis; the oligonucleotides are in Information S1; also called PAPSS1 RR111,112AA; source: E. coli expression strains, purified (GSH sepharose, PreScission digestion, Superdex 200)

Target: the molecule itself
Assay: SEC; analytical gel filtration on Superdex 200 10/300 GL in 20 mM Tris (pH 7.3), 180 mM NaCl, 0.1 mM EDTA, 1 mM DTT; loaded at 2-10 µM, at most three-fold diluted during the run; dimer to monomers

Protein	stoichiometry N	Kd [nM]
B1	2	
B2	2	< 1000
B3	2	< 1000
